Measured values taken from US20080234198A1 (Eli Lilly, published 2008).

T1: human VPAC2 receptor (human, UniProt P41587 24-438)
T1 sequence (looked up): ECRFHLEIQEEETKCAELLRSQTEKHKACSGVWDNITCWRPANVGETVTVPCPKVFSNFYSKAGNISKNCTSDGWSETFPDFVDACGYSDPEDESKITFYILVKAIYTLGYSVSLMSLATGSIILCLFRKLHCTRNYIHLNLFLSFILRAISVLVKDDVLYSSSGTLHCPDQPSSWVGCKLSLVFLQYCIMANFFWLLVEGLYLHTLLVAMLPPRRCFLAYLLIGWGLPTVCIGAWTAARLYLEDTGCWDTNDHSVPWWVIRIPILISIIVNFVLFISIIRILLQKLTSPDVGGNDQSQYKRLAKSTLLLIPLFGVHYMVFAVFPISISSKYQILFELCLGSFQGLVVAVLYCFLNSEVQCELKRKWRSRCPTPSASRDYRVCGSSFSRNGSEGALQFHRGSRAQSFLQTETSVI

T2: rat VPAC1 receptor (rat, UniProt P30083 31-459)
T2 sequence (looked up): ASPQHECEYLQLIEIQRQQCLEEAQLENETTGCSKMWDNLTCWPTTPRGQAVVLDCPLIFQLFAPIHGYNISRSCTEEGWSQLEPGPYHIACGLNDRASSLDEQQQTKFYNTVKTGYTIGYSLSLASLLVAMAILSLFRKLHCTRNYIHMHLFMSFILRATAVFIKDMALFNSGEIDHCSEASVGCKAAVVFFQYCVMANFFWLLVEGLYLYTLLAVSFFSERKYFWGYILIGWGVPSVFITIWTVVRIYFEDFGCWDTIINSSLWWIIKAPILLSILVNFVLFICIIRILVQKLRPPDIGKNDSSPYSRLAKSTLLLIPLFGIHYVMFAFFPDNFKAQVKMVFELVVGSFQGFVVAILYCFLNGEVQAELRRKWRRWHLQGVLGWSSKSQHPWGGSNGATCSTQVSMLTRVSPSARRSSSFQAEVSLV

T3: rat VPAC2 receptor (rat, UniProt P35000 23-437)
T3 sequence (looked up): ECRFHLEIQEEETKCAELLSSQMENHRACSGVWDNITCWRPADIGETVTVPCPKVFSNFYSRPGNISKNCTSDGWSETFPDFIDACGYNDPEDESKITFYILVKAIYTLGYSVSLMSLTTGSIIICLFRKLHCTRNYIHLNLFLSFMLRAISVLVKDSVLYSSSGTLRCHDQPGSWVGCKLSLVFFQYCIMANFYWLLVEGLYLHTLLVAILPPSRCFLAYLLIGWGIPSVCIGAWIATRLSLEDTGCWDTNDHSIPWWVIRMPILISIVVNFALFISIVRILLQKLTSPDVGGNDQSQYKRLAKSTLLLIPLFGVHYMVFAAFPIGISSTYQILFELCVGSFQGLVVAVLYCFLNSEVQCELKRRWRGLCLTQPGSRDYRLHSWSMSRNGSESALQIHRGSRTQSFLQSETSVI


Legend:
human VPAC2 receptor [1] = target: T1, human VPAC2 receptor; assay: cell-based or functional assay
rat VPAC1 receptor = target: T2, rat VPAC1 receptor; assay: cell-based or functional assay
rat VPAC2 receptor = target: T3, rat VPAC2 receptor; assay: cell-based or functional assay
human VPAC2 receptor [2] = target: T1, human VPAC2 receptor; assay: filter binding, VPAC2 cell membranes, displacement of 125I-VIP
Procedure: Binding assays: Membrane prepared from a stable VPAC2 cell line (see Example 3) or from cells transiently transfected with human VPAC1 or PAC1 are used.
The assay plate is filled with 25 μL assay buffer, 25 μL membranes (2.5 μg) suspended in assay buffer, 25 μL agonist in assay buffer, and 25 μL tracer (about 40000 cpm) in assay buffer. The filled plate is incubated for 1 hour with shaking.
The transfer from assay plate to filter plate is conducted. The blocking buffer is aspirated by vacuum filtration and washed two times with flush buffer. 90 μL is transferred from the assay plate to the filter plate. The 90 μL transferred from assay plate is aspirated and washed three times with 200 μL flush buffer. The plastic support is removed. It is dried for 1 hour at 60° C. 30 μL Microscint is added. The count is performed.

Binder | Human VPAC2 Receptor: Alphascreen (EC50; nM) (human VPAC2 receptor [1]) [nM] | Rat VPAC1 Receptor: DiscoveRx: (EC50; nM) (rat VPAC1 receptor) [nM] | Rat VPAC2 Receptor: DiscoveRx: (EC50; nM) (rat VPAC2 receptor) [nM] | IC50 (human VPAC2 receptor [2]) [nM] | Human VPAC2 Receptor: DiscoveRx (EC50; nM) (human VPAC2 receptor [1]) [nM]
HSDAVFTEQYTXLRXQLAXXXYLQXIXXGGPSSGAPPPCC (C6-HSDAVFTEQY(OMe)TOrnLRAibQLAAbuAibOrnYLQAibIOrnOrnGGPSSGAPPPC(PEG20K)C(PEG20K)-NH2) [P517] | 7.5 | 92.4 | 10 | 3.7 | 
HSDAVFTEQYTXLRXQLAXXXYLQSIXXGGPSSGAPPPCC (C6-HSDAVFTEQY(OMe)TOrnLRAibQLAAbuAibOrnYLQSIOrnOrnGGPSSGAPPPC(PEG20K)C(PEG20K)-NH2) [P523] | 5.8 | 20.4 | 5.3 | 4.8 | 
HSDAVFTEQYTXLRXQLAAXXYXQSIXXGGPSSGAPPPCC (C6-HSDAVFTEQY(OMe)TOrnLRAibQLAAAibOrnYAibQSIOrnOrnGGPSSGAPPPC(PEG20K)C(PEG20K)-NH2) [P513] | 28.9 |  |  | 50.5 | 
HSDAVFTEQYTXLRXQLAXXXYXQSIXXGGPSSGAPPPCC (C6-HSDAVFTEQY(OMe)TOrnLRAibQLAAbuAibOrnYAibQSIOrnOrnGGPSSGAPPPC(PEG20K)C(PEG20K)-NH2) [P521] | 22.1 | 602 | 33.1 | 67.1 | 
HSDAVFTEQYTXLRXQLAAXXYXQXIXXGGPSSGAPPPCC (C6-HSDAVFTEQY(OMe)TOrnLRAibQLAAAibOrnYAibQAibIOrnOrnGGPSSGAPPPC(PEG20K)C(PEG20K)-NH2) [P519] | 30.3 |  |  | 51.6 | 
HSDAVFTEQYTXLRXQLAXXXYXQXIXXGGPSSGAPPPCC (C6-HSDAVFTEQY(OMe)TOrnLRAibQLAAbuAibOrnYAibQAibIOrnOrnGGPSSGAPPPC(PEG20K)C(PEG20K)-NH2) [P525] | 25 | 1140 | 44 | 41.8 | 
HSDAVFTEQYTXLRXQVAAXXYLQSIXXXGGPSSGAPPPS (not fully specified; C6-HSDAVFTEQY(OMe)TOrnLRAibQVAAAibOrnYLQSIOrnK(WPEG40K)OrnGGPSSGAPPPS-NH2) [P454] | 59.9 | 1230 | 79.6 | 36.6 | 
HSDAVFTEQYTXLRXQVAAXXYLQSIXCXGGPSSGAPPPC (C6-HSDAVFTEQY(OMe)TOrnLRAibQVAAAibOrnYLQSIOrnC(PEG20K)OrnGGPSSGAPPPC(PEG20K)-NH2) [P505] | 40.5 | 639 | 42.6 | 26.1 | 
HSDAVFTEQYTXLRXQVAAXXYLQSIXXXGGPSSGAPPPC (C6-HSDAVFTEQY(OMe)TOrnLRAibQVAAAibOrnYLQSIOrnK(CO(CH2)2SPEG20K)OrnGGPSSGAPPPC(PEG20K)-NH2) [P499] | 57.7 | 804 | 68.2 | 34 | 
HSDAVFTEQYTXXRXQVAAXXYLQSIXXGGPSSGAPPPS (C6-HSDAVFTEQY(OMe)TOrnK(CO(CH2)2SPEG20K)RAibQVAAAibOrnYLQSIOrnOrnGGPSSGAPPPS-NH2) [P470] | 83.3 | > 1000 | 111 | 263 | 
HSDAVFTEQYTXLRXQVAAXXYLQXIXXGGPSSGAPPPC (C6-HSDAVFTEQY(OMe)TOrnLRAibQVAAAibOrnYLQAibIOrnOrnGGPSSGAPPPC(PEG40K)-NH2) [P509] | 13 | 328 | 28.2 | 11.2 | 
HSDAVFTEQYTXLRXQXAAXXYLQSIXXGGPSSGAPPPS (C6-HSDAVFTEQY(OMe)TOrnLRAibQK(WPEG40K)AAAibOrnYLQSIOrnOrnGGPSSGAPPPS-NH2) [P533] | 2380 |  |  |  | 
HSDAVFTEQYTXLRXQVAAXXYLQSIXXGGPSSGAPPPS (not fully specified; C6-HSDAVFTEQY(OMe)TOrnLRK(WPEG40K)QVAAAibOrnYLQSIOrnOrnGGPSSGAPPPS-NH2) [P529] | 170 | 1180 | 199 | 192 | 
HSDAVFTEQYTXLRXQVAAXXYLQSIXXGGPSSGAPPPS (C6-HSDAVFTEQY(OMe)TOrnLRAibQVAAAibK(CO(CH2)2SPEG20K)YLQSIOrnOrnGGPSSGAPPPS-NH2) [P473] | 26.5 | > 1000 | 25.5 | 256 | 
HSDAVFTEQYTXLRXQVAAXXYLQSXXXGGPSSGAPPPC (C6-HSDAVFTEQY(OMe)TOrnLRAibQVAAAibOrnYLQSK(CO(CH2)2SPEG20K)OrnOrnGGPSSGAPPPC(PEG20K)-NH2) [P497] | 176 | > 1000 | 345 | 146 | 
HSDAVFTEQYTXLRXQVAXXXYLQSIXXGGPSSGAPPPC (C6-HSDAVFTEQY(OMe)TOrnLRAibQVAK(CO(CH2)2SPEG20K)AibOrnYLQSIOrnOrnGGPSSGAPPPC(PEG20K)-NH2) [P492] | 510 | > 4000 | 963 | 156 | 
HSDAVFTEQYTXLRXQVAAXXYLQSIXXGGPSSGAPPPS (C6-HSDAVFTEQY(OMe)TOrnLRAibQVAAAibK(W-PEG40K)YLQSIOrnOrnGGPSSGAPPPS-NH2) [P410] | 129 | > 1000 | 318 | 264 | 
HSDAVFTEQYTXLRXQVAAXXYLQXIXXGGPSSGAPPPC (C6-HSDAVFTEQY(OMe)TOrnLRAibQVAAAibOrnYLQK(CO(CH2)2SPEG20K)IOrnOrnGGPSSGAPPPC(PEG20K)-NH2) [P495] | 117 |  |  | 142 | 
HSDAVFTEQYTXLRXQCAXXXYLQXIXXGGPSSGAPPPS (C6-HSDAVFTEQY(OMe)TOrnLRAibQC(PEG40K)AAbuAibOrnYLQAibIOrnOrnGGPSSGAPPPS-NH2) [P545] | 45 | 380 | 99.5 | 79.9 | 
HSDAVFTEQYTXLRXQVAAXXYLQSXXXGGPSSGAPPPS (C6-HSDAVFTEQY(OMe)TOrnLRAibQVAAAibOrnYLQSK(WPEG40K)OrnOrnGGPSSGAPPPS-NH2) [P535] | 98.4 | > 1000 | 318 | 145 | 
HSDAVFTEQYTXLRXQLAXXXYLQSCXXGGPSSGAPPPS (C6-HSDAVFTEQY(OMe)TOrnLRAibQLAAbuAibOrnYLQSC(PEG40K)OrnOrnGGPSSGAPPPS-NH2) [P543] | 84.2 | 355 | 101 | 56.3 | 8.9
HSDAVFTEQYTXLRXQVAAXXYLQSCXXGGPSSGAPPPC (C6-HSDAVFTEQY(OMe)TOrnLRAibQVAAAibOrnYLQSC(PEG20K)OrnOrnGGPSSGAPPPC(PEG20K)-NH2) [P503] | 147 | > 4000 | 520 | 41.5 | 
HSDAVFTEQYTXLRXQVAAXXYLCSIXXGGPSSGAPPPC (C6-HSDAVFTEQY(OMe)TOrnLRAibQVAAAibOrnYLC(PEG20K)SIOrnOrnGGPSSGAPPPC(PEG20K)-NH2) [P501] | 131 | > 1000 | 272 | 111 | 
HSDAVFTEQYTXLRXQVCAXXYLQSIXXGGPSSGAPPPS (C6-HSDAVFTEQY(OMe)TOrnLRAibQVC(PEG40K)AAibOrnYLQSIOrnOrnGGPSSGAPPPS-NH2) [P478] | 49.9 | 2050 | 120 | 30 | 
HSDAVFTEQYTXLRXQVAXXXYLQXIXXGGPSSGAPPPC (C6-HSDAVFTEQY(OMe)TOrnLRAibQVAAbuAibOrnYLQAibIOrnOrnGGPSSGAPPPC(PEG40K)-NH2) [P511] | 7.6 | 61.9 | 13.9 | 7.2 | 
HSDAVFTEQYTXLRXQLAXXXYLQXCXXGGPSSGAPPPS (C6-HSDAVFTEQY(OMe)TOrnLRAibQLAAbuAibOrnYLQAibC(PEG40K)OrnOrnGGPSSGAPPPS-NH2) [P541] | 45.8 | 665 | 102 | 59.8 | 
